Reference: US20200399330A1, “ANTI-LEUKEMIC, ANTI-HIV, AND SIALIDASE ACTIVITIES OF ROYAL-JELLY PROTEINS” (priority 2018, published 2020)
Entries after “also recorded” stand apart in the source; their conditions may differ.

B1: MRJP2: bound protein purified from PF50 by CM-Sephadex ion-exchange chromatography (protein, UniProt O77061 18-452, looked up)
Major royal jelly protein 2: AIVRENSPRNLEKSLNVIHEWKYFDYDFGSEERRQAAIQSGEYDHTKNYPFDVDQWRDKTFVTILRYDGVPSTLNVISGKTGKGGRLLKPYPDWSFAEFKDCSKIVSAFKIAIDKFDRLWVLDSGLVNRTVPVCAPKLHVFDLKTSNHLKQIEIPHDIAVNATTGKGGLVSLAVQAIDLANTLVYMADHKGDALIVYQNADDSFHRLTSNTFDYDPRYAKMTIDGESFTLKNGICGMALSPVTNNLYYSPLASHGLYYVNTAPFMKSQFGENNVQYQGSEDILNTQSLAKAVSKNGVLFVGLVGNSAVGCWNEHQSLQRQNLEMVAQNDRTLQMIAGMKIKEELPHFVGSNKPVKDEYMLVLSNRMQKIVNDDFNFDDVNFRILGANVKELIRNTHCVNNNQNDNIQNTNNQNDNNQKNNKKNANNQKNNNQNDN

Columns and labels:
Jurkat cells [1] = assay: Fluorescence microscope investigation of apoptotic cells (EB/AO double staining), Jurkat; format: cell-based, human; settings: 72 h
Protocol: (§1) Then leukemia cell apoptosis was investigated by ethidium bromide (EB)/acridine orange (AO) double staining (100 μg/mL for each) and then visualized under the fluorescent phase contrast microscope (Olympus, Japan).

NFS-60 cells [2] = assay: Fluorescence microscope investigation of apoptotic cells (EB/AO double staining), NFS-60; format: cell-based, murine; settings: NFS-60, 72 h
Protocol: as §1

[3] = tested on: human T lymphocyte (Jurkat) leukemia cells; assay: Anti-leukemic activity, MTT assay and phase-contrast morphology, Jurkat; format: cell-based; settings: 72 h
Protocol: (§2) Anti-leukemic activity of RJ and its fractions, Both leukemia cells (NFS-60 and Jurkat) were seeded in RPMI containing 10% FBS as 3000 cells/well in 96 well cell culture plate. Then serial concentrations from the safe dose of each of the tested RJ and its fractions was added and incubated for 72 h in a 5% CO2 incubator at 37° C. The cytotoxic effect of RJ and its fractions in comparison with DOX against both leukemia cell lines were investigated using the MTT assay as described above. Then the concentration that inhibits leukemia cell growth by 50% (IG50 value) was determined for the RJ and each of its fractions and used to select the effective fraction (the lowest IG50 value). The morphological changes of untreated and treated leukemia cells were examined using the phase-contrast microscope.

[4] = tested on: murine myeloid (NFS-60) leukemia cells; assay: Anti-leukemic activity, MTT assay and phase-contrast morphology, NFS-60; format: cell-based; settings: NFS-60, 72 h
Protocol: as §2

PBMCs = assay: Sialidase activity (release of cellular SA), PBMCs; format: cell-based, human; settings: 2 h and 72 h incubation
Protocol: (§3) The sialidase catalytic activity of the RJ isolated PFs was evaluated by incubating different concentrations (500, 250, 125, 62.5, 31.25) of each of the RJ-PFs (CPF, PF25, PF30, PF40, PF50, PF60, MRJP2 and MRJP2 isoform X1) with PBMCs or HepG2 cells at 37° C. for 2 h and 72 h. Two controls were included, each PF alone without cells and each cell alone without PF. At the end of the incubation period, the released SA concentration was quantified followed the previously published method.
(§4) Preparation of SA-attached cells, PBMCs were obtained by Ficoll-Hypaque density gradient centrifugation method as described previously. […] Finally, the supernatant was removed and the cells were suspended in 5 ml of RPMI-1640 medium containing 10% FBS and counted using trypan blue stain. […]
(§5) The SA assay, SA concentration was measured by the alkali-Ehrlich method using 0.2 M borate buffer at pH 8.5. After the incubation period (2 h or 72 h), cell culture was centrifuged at 2000 rpm for 15 min and the SA content was quantified in the supernatant. […] The developed violet color was read at 560 nm. The SA concentration (nmol/mL) was calculated from the standard SA calibration curve and used to calculate the sialidase activity of the RJPF as nmol/ml/min (IU). The specific activity (IU/mg protein) was calculated after determination of the protein content (mg/mL) in the supernatant using the Bradford method.

HepG2 cells = assay: Sialidase activity (release of cellular SA), HepG2; format: cell-based; settings: 2 h and 72 h incubation
Protocol: as §3, §4, §5

Jurkat cells [5] = assay: Cell cycle distribution by flow cytometry, Jurkat; format: cell-based, human; settings: at IG50, 72 h
Protocol: (§6) Briefly, the untreated and treated leukemia cells were incubated with 5 μg/mL RNase A (Sigma, USA) then mixed with 10 μl of 1 mg/mL PI (Sigma, USA) for flow cytometry analysis at 488 nm using Cell Quist and Mod Fit softwares.

Jurkat cells [6] = assay: Flow cytometric analysis of apoptosis (annexin V/PI), Jurkat; format: cell-based, human; settings: at IG50, 72 h
Protocol: (§7) Flow cytometric analysis of apoptosis, RJ, its effective fractions (CPF, PF50, MRJP2, and MRJP2 X1), and DOX at their IG50 was incubated for 72 h with each of the leukemia cell lines. After trypsinization, the untreated and treated cells were incubated with annexin V/propidium iodide (PI) for 15 min. Then cells were fixed and incubated with streptavidin-fluorescein (5 μg/mL) for 15 min. The apoptosis-dependent anti-leukemic effect was determined by quantification of annexin-stained apoptotic cells using the Fluorescein isothiocyanate (FITC) signal detector (FL1) in the flow cytometer (Partec, Germany).

NFS-60 cells [7] = assay: Flow cytometric analysis of apoptosis (annexin V/PI), NFS-60; format: cell-based, murine; settings: NFS-60, at IG50, 72 h
Protocol: as §7

NFS-60 cells [8] = assay: Cell cycle distribution by flow cytometry, NFS-60; format: cell-based, murine; settings: NFS-60, at IG50, 72 h
Protocol: as §6

Molecule	apoptotic cell populations by EB/AO double staining (Jurkat cells [1])	apoptotic cell populations by EB/AO double staining (NFS-60 cells [2])	IG50 (concentration that inhibits leukemia cell growth by 50%) ([3]; MTT)	IG50 (concentration that inhibits leukemia cell growth by 50%) ([4]; MTT)	sialidase activity (released SA) (PBMCs)	sialidase activity (released SA) (HepG2 cells)	cell cycle distribution (G0, G1, S, G2/M) (Jurkat cells [5])	% apoptotic cells (annexin V/PI) (Jurkat cells [6])	morphological changes under the phase contrast microscope [3]	% apoptotic cells (annexin V/PI) (NFS-60 cells [7])	cell cycle distribution (G0, G1, S, G2/M) (NFS-60 cells [8])	morphological changes under the phase contrast microscope [4]
COc1cccc2c1C(=O)c1c(O)c3c(c(O)c1C2=O)C[C@@](O)(C(=O)CO)C[C@@H]3O[C@H]1C[C@H](N)[C@H](O)[C@H](C)O1 [DOX, Doxorubicin, reference compound]	increased the number of the late apoptotic cells	increased the number of the late apoptotic cells	significantly more potent than the tested fractions	significantly more potent than the tested fractions	–	–	–	–	–	–	–	–
B1	increased the number of the late apoptotic cells	increased the number of the late apoptotic cells	–	–	proven their sialidase activity	proven their sialidase activity	almost completely blocking the cell cycle G0 phase; also recorded: the most effective fraction with the same or higher potency than DOX	inducing apoptosis; also recorded: highest percentage of the apoptotic cell populations	hallmarks of the apoptosis, which observed obviously	inducing apoptosis; also recorded: highest percentage of the apoptotic cell populations	almost completely blocking the cell cycle G0 phase; also recorded: the most effective fraction with the same or higher potency than DOX	hallmarks of the apoptosis, which observed obviously
